We go through 3 substances from publication PMC2139828.

The term stoichiometry N denotes a count of units in the complex or per binding partner.

Common to all, as to experiment: SDS-PAGE under nonreducing conditions
Experiment [1] has as its target rFN(AC), recombinant human fibronectin isoform containing EDA but lacking EDB (human).
Experiment [2] deals with rFN(BAC), recombinant human fibronectin isoform containing both EDA and EDB segments (human).
Experiment [3] addresses rFN(C), recombinant human fibronectin isoform lacking both EDA and EDB segments (human).

With “rFN(AC), recombinant human fibronectin isoform containing EDA but lacking EDB (natural protein)”, the stoichiometry N in experiment [1] worked out at 2.
As for “rFN(BAC), recombinant human fibronectin isoform containing both EDA and EDB segments (natural protein)”, the stoichiometry N in experiment [2] stood at 2.
Regarding “rFN(C), recombinant human fibronectin isoform lacking both EDA and EDB segments (natural protein)”, in experiment [3], the stoichiometry N stood at 2.
